In paper PMC10499821:

Target: Nsp3 ADRP (SARS-CoV-2) (UniProt P0DTD1)
Assay: fluorescence polarisation

B1: PARP10_(700–715) (peptide)
peptide: DGGTDGKAQLVVHSA
B1 showed a Kd of 300 µM.
